According to patent US20240350600A1:

Biological target: cell-bound IgE on basophils of peanut-allergic subjects
Test: cell-based or functional assay

percentage of activated basophils, one subject: 8%
B1: Ara h 1 combined epitope peptide (409-427) (peptide)
peptide: NNFGKLFEVKPDKKNPQLQ
